The target of assay [1] is T1, native EED in MLL-AF9 leukemia cells (UniProt Q921E6 2-441, limits assumed).
T1 construct: Endogenous intracellular protein
As to the kind of experiment: anti-FITC immunoprecipitation from peptide-treated MLL-AF9 cells, EED western. The method, then: To assess the interaction between SAH-EZH2 peptides and native EED, MLL-AF9 leukemia cells (2×10⁷) were cultured in 10 ml AF9 media using 10 cm dishes (BD Biosciences) and FITC-SAH-EZH2 peptides added to final concentration of 20 μM, followed by 8-12 h incubation. Treated cells were washed and trypsinized as above, lysed and then incubated with 50 μl of FITC-antibody (1 mg/ml) and 100 μl of protein G agarose (Roche) for 3 h. The amount of EED bound to FITC-SAH-EZH2 peptides was assessed by anti-EED western analysis (Millipore). To monitor for dissociation of native EED-EZH1/EZH2 complexes by SAH-EZH2, Sf21 cells were co-transfected with HA-EED and FLAG-EZH1 or FLAG-EZH2 baculovirus. EED-EZH1 and EED-EZH2 complexes were purified by anti-FLAG agarose (Sigma). EED-EZH1 and EED-EZH2 complexes (40 nM final concentration) were incubated with FITC-SAH-EZH2 peptides (final concentrations, 10, 3 and 1 μM) in 200 μl binding buffer for 2 h. After successive washes, the mixtures were incubated with anti-HA agarose (Sigma) and the level of HA-EED-bound EZH1 and EZH2 assessed by anti-HA western analysis.

In the next assay the target is purified EED (Example 6) (UniProt O75530 1-441, limits assumed). As to the kind of experiment: competitive fluorescence polarization: EED 200 nM, FITC-EZH2(42-68) 20 nM as competitor, 30 min. Here is the method: The EED binding affinities of SAH-EZH2 and SAH-EZH2(42-68)AC were assessed by their capacities to displace FITC-labeled EZH2(42-68) peptide from EED. Serially diluted acetyl-SAH-EZH2 and the doubly stapled acetyl-SAH-EZH2(42-68)AC (dose range from 2.5 nM to 10 μIM) were incubated with purified EED (200 nM) and FITC-labeled EZH2(42-68) peptide (20 nM) for 30 min, followed by measurement of fluorescence polarization. N-terminal acetylated SAH-EZH2(42-68)AC displaced FITC-labeled EZH2(42-68) peptide from EED two times more efficiently than SAH-EZH2. The non-binding EZH2(47-64) construct was used as a negative control.

Bridges are numbered along the chain shown (N, C = ends). Where no end group is shown, it is not given here. [ ]: non-standard residue; d: D form. The star is where a group is joined. FITC = O=C1OC2(c3ccc(O)cc3Oc3cc(O)ccc32)c2ccc(NC(=S)*)cc21; S5 = C=CCCC[C@](C)(N)C(=O)O

These results are taken from patent US20160068834A1 (Dana-Farber, published 2016).

Chain of purified EED (Example 6) (O75530 whole entry): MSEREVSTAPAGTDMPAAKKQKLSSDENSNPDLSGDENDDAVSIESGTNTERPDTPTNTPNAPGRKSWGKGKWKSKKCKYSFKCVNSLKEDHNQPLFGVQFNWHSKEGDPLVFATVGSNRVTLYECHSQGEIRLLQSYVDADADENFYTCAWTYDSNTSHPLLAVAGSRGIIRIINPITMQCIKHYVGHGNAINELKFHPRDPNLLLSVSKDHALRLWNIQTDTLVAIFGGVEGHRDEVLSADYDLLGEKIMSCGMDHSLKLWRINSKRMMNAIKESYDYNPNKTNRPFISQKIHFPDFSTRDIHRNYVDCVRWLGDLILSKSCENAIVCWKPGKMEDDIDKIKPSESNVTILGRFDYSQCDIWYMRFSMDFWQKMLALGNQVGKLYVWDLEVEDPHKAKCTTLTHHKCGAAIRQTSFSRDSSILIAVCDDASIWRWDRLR
T1 sequence (Q921E6 2-441 limits assumed): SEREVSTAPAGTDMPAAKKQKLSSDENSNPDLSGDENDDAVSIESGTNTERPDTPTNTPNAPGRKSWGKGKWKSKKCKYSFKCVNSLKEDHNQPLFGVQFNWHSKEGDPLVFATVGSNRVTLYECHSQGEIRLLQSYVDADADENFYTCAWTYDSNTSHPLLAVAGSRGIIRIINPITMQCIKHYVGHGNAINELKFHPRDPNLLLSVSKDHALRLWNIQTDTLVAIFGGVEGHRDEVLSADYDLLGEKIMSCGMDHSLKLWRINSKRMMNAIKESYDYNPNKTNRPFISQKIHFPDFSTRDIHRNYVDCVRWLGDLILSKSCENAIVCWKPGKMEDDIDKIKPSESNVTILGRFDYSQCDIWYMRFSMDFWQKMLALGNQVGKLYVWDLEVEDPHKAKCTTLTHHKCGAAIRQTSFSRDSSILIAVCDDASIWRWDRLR

B1: FITC-SAH-EZH2A(42-68)E54Q/E59Q (peptide)
peptide: {FITC}-FSSNR[S5]KIL[S5]RTQILNQQWKQRRIQPV
modifications: staple 6-10
notes: Negative control peptide; also called SAH-EZH2MUT; SAH-EZH2(42-68)A-E54,59Q
In the case of B1, in assay [1], the binding result was “no binding (tested: 20 µM peptide on cells)”.

B2: acetyl-SAH-EZH2(42-68)AC (peptide)
peptide: Ac-FSSNR[S5]KIL[S5]RT[S5]ILN[S5]EWKQRRIQPV
modifications: staple 6-10, 13-17
notes: Doubly stapled peptide; also called doubly stapled SAH-EZH2 peptide
On to B2, for which, in the assay with purified EED (Example 6), the “fold displacement efficiency against SAH-EZH2” value amounted to 2 fold.
